Measured values reported in paper PMC11573789.

Key:
Test in all cases: NanoBiT (ratiometric protein-fragment complementation assay in live yeast)
Conditions in all cases: four experimental replicates; read off a plot
Eft2 = target: Eft2
Caf40 = target: Caf40
[1] = target: Nmd2/Upf2 [S. cerevisiae]

other: NanoBiT ratio (log2 scale) (Eft2) [log2] | other: NanoBiT ratio (log2 scale) (Caf40) [log2] | screen value [1] [log2] | Substance
1.1 | 1.4 | – | Upf1-SmBiT (from UniProt P30771) C122S
– | – | -2.5 | Upf1-SmBiT mutant C122S [S. cerevisiae] / Nmd2/Upf2 [S. cerevisiae] chain 1 C122S
